60 sequences from the supplement of paper PMC7877785 can be followed below.

This data set can be described thus: self-splicing fitness, log relative to wild type (ln ratio); higher = more splicing; Tetrahymena group I intron in knt gene, E. coli kanamycin selection, DiMSum; sequences stand for … in CUCUCU…GGAGGGAAAAGUUAUCAGGCAUGCACCUGGUAGCUAGUCUUUAAACCAAUAGAUUGCAUCGGUUUAAAAGGCAAGACCGUCAAAUUGCGGGAAAGGGGUCAACAGCCGUUCAGUACCAAGUCUCAGGGGAAACUUUGAGAUGGCCUUGCAAAGGGUAUGGUAAUAAGCUGACGGACAUGGUCCUAACCACGCAGCCAAGUCCUAAGUCAACAGAUCUUCUGUUGAUAUGGAUGCAGUUCACAGACUAAAUGUCGGUCGGGGAAGAUGUAUUCUUCUCAUAAGAUAUAGUCGGACCUCUCCUUAAUGGGAGCUAGCGGAUGAAGUGAUGCAACACUGGAGCCGCUGGGAACUAAUUUGUAUGCGAAAGUAUAUUGAUUAGUUUUGGAGUACUCGUGGUCG
In a few lines:
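Library with all eight P1ex-region intron nucleotides randomised, intron inside the knt kanamycin-resistance gene on pET-22b(+), in E. coli BL21(DE3). Cells grew overnight at 37°C or 30°C on LB agar with or without 25 μg/mL kanamycin (plus 100 μg/mL carbenicillin, 50 μM IPTG, 0.2% rhamnose), in six replicate transformations. Pooled colonies were amplicon-sequenced on Illumina HiSeq 2500. DiMSum fitness is the error-weighted combination of wild-type-normalised replicate fold changes, kanamycin versus none.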

± gives the uncertainty stated by the source.

With UCGCAGCAAUAUUACGGGUA, the “self-splicing fitness (ln)” value (30 °C) was -1.78 ± 0.071 and the “self-splicing fitness (ln)” value (37 °C) was -1.08 ± 0.052.
Turning to GAAAAGCAAUAUUACGUACC, the “self-splicing fitness (ln)” value runs as follows: (30 °C) -0.525 ± 0.092; (37 °C) -0.528 ± 0.14.
Consider UACUAGCAAUAUUACGUCCG, for which the “self-splicing fitness (ln)” value (30 °C) is -0.327 ± 0.12 and the “self-splicing fitness (ln)” value (37 °C) was found to be 0.11 ± 0.14.
Consider AGCUAGCAAUAUUACGUAGA, for which the “self-splicing fitness (ln)” value is -4.65 ± 0.32 (30 °C) and -1.15 ± 0.14 (37 °C).
As for CGUGAGCAAUAUUACGAGGG, the “self-splicing fitness (ln)” value is -3.77 ± 0.3 (30 °C) and -2.36 ± 0.25 (37 °C).
For CACAAGCAAUAUUACGUAAA, the “self-splicing fitness (ln)” value by setting is: (30 °C) -3.74 ± 0.21; (37 °C) -2.39 ± 0.23.
The matching figures for CACCAGCAAUAUUACGGUCC: -0.606 ± 0.074 and -0.037 ± 0.11.
With AGGAAGCAAUAUUACGUCUG, the “self-splicing fitness (ln)” value by setting is: (30 °C) -0.767 ± 0.058; (37 °C) -0.387 ± 0.073.
The matching figures for GAGUAGCAAUAUUACGGGAG: -2.18 ± 0.19 and -3.1 ± 0.24.
Turning to AUCAAGCAAUAUUACGCAAU, the “self-splicing fitness (ln)” value reads like this: (30 °C) -2.22 ± 0.14; (37 °C) -1.56 ± 0.14.
The matching figures for GCAGAGCAAUAUUACGGCGA: -2.12 ± 0.11 and -1.55 ± 0.11.
For CACGAGCAAUAUUACGAGCA, the “self-splicing fitness (ln)” value was -4.24 ± 0.39 (30 °C) and -3.46 ± 0.4 (37 °C).
For the sequence UAAAAGCAAUAUUACGUGUU, the “self-splicing fitness (ln)” value was -4.13 ± 0.15 (30 °C) and -2.63 ± 0.14 (37 °C).
As to GCCUAGCAAUAUUACGGUCG, the “self-splicing fitness (ln)” value is -3.36 ± 0.2 (30 °C) and -2.5 ± 0.25 (37 °C).
The like results for GGGUAGCAAUAUUACGAGAG were, in that order, -3.56 ± 0.28 and -2.26 ± 0.2.
In the case of GUUUAGCAAUAUUACGUAUC, the “self-splicing fitness (ln)” value was -0.904 ± 0.28 (30 °C) and -0.233 ± 0.36 (37 °C).
With GUUUAGCAAUAUUACGGGGC, under “30 °C”, the “self-splicing fitness (ln)” value was -2.67 ± 0.33.
As to GUCCAGCAAUAUUACGGACU, the “self-splicing fitness (ln)” value was -3.74 ± 0.29 (30 °C) and -3.05 ± 0.4 (37 °C).
On to GAUGAGCAAUAUUACGUGUU, for which the “self-splicing fitness (ln)” value (30 °C) was -3.72 ± 0.31 and the “self-splicing fitness (ln)” value (37 °C) is -2.47 ± 0.27.
For CUUAAGCAAUAUUACGUGGU, the “self-splicing fitness (ln)” value is, setting by setting: (30 °C) -4 ± 0.21; (37 °C) -2.35 ± 0.2.
Regarding ACGUAGCAAUAUUACGCUAA, the “self-splicing fitness (ln)” value was -1.84 ± 0.21 (30 °C) and -0.48 ± 0.13 (37 °C).
As to GUGAAGCAAUAUUACGGGUC, the “self-splicing fitness (ln)” value (30 °C) was -2.26 ± 0.21 and the “self-splicing fitness (ln)” value (37 °C) was -2.21 ± 0.28.
Consider GCCCAGCAAUAUUACGUAUG, for which the “self-splicing fitness (ln)” value is -3.42 ± 0.18 (30 °C) and -2.09 ± 0.18 (37 °C).
For GGCCAGCAAUAUUACGGGUG, the “self-splicing fitness (ln)” value was -1.02 ± 0.049 (30 °C) and -0.536 ± 0.065 (37 °C).
With GAUCAGCAAUAUUACGAUCG, the “self-splicing fitness (ln)” value was -1.17 ± 0.096 (30 °C) and 0.0523 ± 0.13 (37 °C).
The matching figures for AAGAAGCAAUAUUACGACCC: -1.01 ± 0.16 and -0.395 ± 0.17.
The like results for AUCAAGCAAUAUUACGCGUG were, in that order, -2.23 ± 0.08 and -0.744 ± 0.084.
The like results for ACUGAGCAAUAUUACGAUGC were, in that order, -2.69 ± 0.16 and -0.416 ± 0.15.
GGGAAGCAAUAUUACGAAGU: the “self-splicing fitness (ln)” value reads like this: (30 °C) -2.43 ± 0.29; (37 °C) -1.83 ± 0.35.
On to GGACAGCAAUAUUACGUACG, for which the “self-splicing fitness (ln)” value by setting is: (30 °C) -0.876 ± 0.12; (37 °C) 0.399 ± 0.18.
UCACAGCAAUAUUACGGCAA: the “self-splicing fitness (ln)” value runs as follows: (30 °C) -1.38 ± 0.1; (37 °C) -1.42 ± 0.097.
On to AUGUAGCAAUAUUACGCGAC, for which the “self-splicing fitness (ln)” value is -1.38 ± 0.17 (30 °C) and -1.76 ± 0.36 (37 °C).
For GAUAAGCAAUAUUACGUGGG, the “self-splicing fitness (ln)” value was -3.77 ± 0.23 (30 °C) and -2.27 ± 0.25 (37 °C).
For the sequence AUAUAGCAAUAUUACGCGUU, the “self-splicing fitness (ln)” value is -1.67 ± 0.2 (30 °C) and -1.61 ± 0.24 (37 °C).
GAUUAGCAAUAUUACGGGAG: the “self-splicing fitness (ln)” value is -2.81 ± 0.24 (30 °C) and -2.8 ± 0.38 (37 °C).
For UCCUAGCAAUAUUACGGCUG, the “self-splicing fitness (ln)” value reads like this: (30 °C) -3.67 ± 0.39; (37 °C) -1.37 ± 0.47.
As to UCUAAGCAAUAUUACGUAUG, the “self-splicing fitness (ln)” value by setting is: (30 °C) -1.95 ± 0.089; (37 °C) -1.6 ± 0.11.
In the case of CAAUAGCAAUAUUACGGGUG, the “self-splicing fitness (ln)” value by setting is: (30 °C) -0.693 ± 0.068; (37 °C) 0.0252 ± 0.091.
For ACCGAGCAAUAUUACGCCUU, the “self-splicing fitness (ln)” value is, setting by setting: (30 °C) -2.75 ± 0.24; (37 °C) -1.32 ± 0.19.
With GAGAAGCAAUAUUACGAAAU, the “self-splicing fitness (ln)” value runs as follows: (30 °C) -3.17 ± 0.23; (37 °C) -1.63 ± 0.19.
Take CACCAGCAAUAUUACGAUAC: the “self-splicing fitness (ln)” value (30 °C) is -3.58 ± 0.23 and the “self-splicing fitness (ln)” value (37 °C) was -1.94 ± 0.19.
The like results for CUUGAGCAAUAUUACGUGGG were, in that order, -3.3 ± 0.38 and -3.17 ± 0.27.
For the sequence UAUUAGCAAUAUUACGCCAC, the “self-splicing fitness (ln)” value (37 °C) is -0.751 ± 0.48.
As for GUGUAGCAAUAUUACGUUCG, the “self-splicing fitness (ln)” value by setting is: (30 °C) -1.65 ± 0.091; (37 °C) -0.693 ± 0.11.
With AGUCAGCAAUAUUACGAUAC, the “self-splicing fitness (ln)” value is -1.69 ± 0.12 (30 °C) and -0.336 ± 0.11 (37 °C).
As for CUUCAGCAAUAUUACGCCCG, the “self-splicing fitness (ln)” value reads like this: (30 °C) -0.156 ± 0.12; (37 °C) -0.17 ± 0.15.
The like results for UACGAGCAAUAUUACGGAAG were, in that order, -3.5 ± 0.24 and -2.26 ± 0.37.
With ACCAAGCAAUAUUACGACGU, the “self-splicing fitness (ln)” value was -0.00288 ± 0.056 (30 °C) and 0.552 ± 0.063 (37 °C).
For AGAUAGCAAUAUUACGAAGC, for the setting “37 °C”, the “self-splicing fitness (ln)” value is -1.5 ± 0.28.
Consider UGUGAGCAAUAUUACGACUA, for which the “self-splicing fitness (ln)” value (30 °C) was -0.569 ± 0.2 and the “self-splicing fitness (ln)” value (37 °C) was -1.07 ± 0.19.
The matching figures for CUGAAGCAAUAUUACGGGGU: -3.34 ± 0.24 and -0.289 ± 0.17.
AAGGAGCAAUAUUACGAUCU: the “self-splicing fitness (ln)” value (30 °C) was -0.603 ± 0.085 and the “self-splicing fitness (ln)” value (37 °C) was -0.731 ± 0.11.
For the sequence GCCUAGCAAUAUUACGUACU, the “self-splicing fitness (ln)” value reads like this: (30 °C) -0.867 ± 0.092; (37 °C) -0.282 ± 0.093.
Regarding CGAAAGCAAUAUUACGCCCG, the “self-splicing fitness (ln)” value is -1.9 ± 0.18 (30 °C) and -0.623 ± 0.21 (37 °C).
With GAAGAGCAAUAUUACGGCUC, the “self-splicing fitness (ln)” value (30 °C) is -1.85 ± 0.24 and the “self-splicing fitness (ln)” value (37 °C) was -2.06 ± 0.3.
As for CGGCAGCAAUAUUACGAAGA, the “self-splicing fitness (ln)” value is -2.55 ± 0.17 (30 °C) and -1.25 ± 0.18 (37 °C).
The matching figures for GGGUAGCAAUAUUACGUUGC: -3.63 ± 0.33 and -0.334 ± 0.22.
Take GAGAAGCAAUAUUACGUGGC: the “self-splicing fitness (ln)” value runs as follows: (30 °C) -3.59 ± 0.17; (37 °C) -0.933 ± 0.11.
Consider GUCCAGCAAUAUUACGCAUC, for which the “self-splicing fitness (ln)” value (30 °C) was -0.179 ± 0.089 and the “self-splicing fitness (ln)” value (37 °C) came to 0.142 ± 0.12.
In the case of GGGCAGCAAUAUUACGCGCG, the “self-splicing fitness (ln)” value is, setting by setting: (30 °C) -0.63 ± 0.13; (37 °C) -0.682 ± 0.14.
